Where no end group is shown, it is not given here. CPX display scaffold = circularly permuted E. coli OmpX display scaffold
B1: ABP library clone 2-3B-5 (designed binder, not shown: large carriers; small tags and cut ends)
chain: GQSGQCEYAFGPLGLAGGGSGNFGYGKWEWDYGKWLEKVGGC-{CPX display scaffold}
modifications: not fully specified; cysteine pairing not given here
B2: BBB-08 (peptide)
peptide: GVVLTTMNFWDWITV

Key:
VEGF [1] = target: VEGF (UniProt P15692); experiment: FACS, clone displayed on E. coli (CPX), labeled VEGF; MMP-2 treated against untreated (FIG. 25)
Chain of VEGF (P15692 other isoform, or with tags, fused parts or gaps limits assumed): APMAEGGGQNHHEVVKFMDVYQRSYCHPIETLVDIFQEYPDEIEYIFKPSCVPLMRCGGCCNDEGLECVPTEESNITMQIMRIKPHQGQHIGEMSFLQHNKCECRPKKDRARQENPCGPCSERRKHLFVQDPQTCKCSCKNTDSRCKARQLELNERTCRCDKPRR

VEGF [2] = target: VEGF (UniProt P15692); experiment: FACS, clone displayed on E. coli (CPX), labeled VEGF; with MMP-2 against without (FIG. 23)
anti-VCAM-1 scFv = experiment: FACS, peptide displayed on bacteria, 50 nM biotinylated anti-VCAM scFv then 1 nM anti-biotin PE; background without scFv printed as 142

| Binder | fold increase in fluorescence after enzyme cleavage (VEGF [1]) [fold] | fold increase in fluorescence in the presence of MMP-2 (VEGF [2]) [fold] | average fluorescence value (anti-VCAM-1 scFv) |
| --- | --- | --- | --- |
| B1 | 10 | 11.8 | – |
| B2 | – | – | 2620 |

From patent publication US20090304719A1
